# From publication PMC10847046
# Target: M66/StcE (Yersinia entomophaga (endogenous in the ΔLC derivative of MH96))
# Experiment: cryo-EM structure
substance,measurement,value
M66/StcE (enzyme),stoichiometry N,4
